Experiments:
[1] = target: T1, hLTBP3-proTGFβ1 (human, UniProt Q9NS15 44-1303; P01137 30-390, limits assumed); assay: BLI (Octet), Fab in solution, biotinylated antigen immobilised
T1 construct: LLC as m1; Same id used for the cell-made complex in reporter assays; also called human LTBP3-proTGFβ1 complex; LTBP3-ProTGFb1
Description: (§1) The table below exemplifies binding kinetics of the listed antibodies (e.g., Fabs) obtained by OCTET®-based binding assays. The experiments were conducted with immobilized, biotinylated antigen and Fab fragments (e.g., test antibodies) in solution.

[2] = target: T2, hLTBP1-proTGFβ1 (human, UniProt Q14766 347-1721; P01137 30-390, limits assumed); assay: as above
T2 construct: Large latent complex (LLC): proTGFβ1 dimer disulfide-linked to one presenting molecule; recombinant, purified, biotinylated in BLI/SPR; The same id is used for the complex made by transfected cells in the reporter assays; also called human LTBP1-proTGFβ1 complex; LTBP1-ProTGFb1
Description: as §1

[3] = target: T3, hGARP-proTGFβ1 (human, UniProt Q14392 18-627; P01137 30-390, limits assumed); assay: as above
T3 construct: LLC as m1; Same id used for the cell-surface complex in reporter assays; also called human GARP-proTGFβ1 complex; GARP-ProTGFb1
Description: as §1

[4] = target: T1, hLTBP3-proTGFβ1; assay: SPR (Biacore), Fab; affinity relative to Ref
Description: (§2) Surface plasmon resonance (SPR) was used to measure binding kinetics using a BIACORE® system. […] Experiments were carried out with eight types of LLCs, namely, hLTBP1-proTGFβ1, mLTBP1-proTGFβ1, hLTBP3-proTGFβ1, mLTBP3-proTGFβ1, hGARP-proTGFβ1, mGARP-proTGFβ1, hLRRC33-proTGFβ1 and mLRRC33-proTGFβ1.
(§3) In vitro binding kinetics (on/off rates) were measured in Biacore-based assays and affinities were determined against all four known LLCs using both human and murine counterparts for each. Based on the association rate and dissociation rate, KD was calculated for each. In addition, relative affinities, as compared to the reference antibody as a benchmark, were calculated and expressed as “fold difference” relative to the reference antibody.
(§4) A BIACORE® system was employed to determine the monovalent binding affinity and the kinetic parameters for antigen binding of test antibodies. The binding kinetics were evaluated by surface plasmon resonance using Biacore 8K (GE Healthcare). A Biotin CAP sensor chip was used to capture the biotinylated antigens. […] Multi-cycle kinetics was employed where each analyte concentration was injected in a separate cycle and the sensor chip surface was regenerated after each cycle. All the assays were carried out in freshly prepared 1×HBS-EP+buffer (10 mM HEPES, 150 mM NaCl, 3 mM EDTA, 0.05% Tween20, pH 7.4). Data for all the analyte concentrations for each interaction were fit globally to a 1:1 binding model to obtain the kinetic parameters. The Sensorgram for 0 nM analyte concentration was used as reference.

[5] = target: T2, hLTBP1-proTGFβ1; assay: SPR (Biacore), Fab; affinity relative to Ref
Description: as §2, §3, §4

[6] = target: T4, mLTBP1-proTGFβ1 (mouse); assay: SPR (Biacore), Fab; affinity relative to Ref
T4 construct: Murine LLC; also called murine LTBP1-proTGFβ1 complex
Description: as §2, §3, §4

[7] = target: T5, mLTBP3-proTGFβ1 (mouse); assay: SPR (Biacore), Fab; affinity relative to Ref
T5 construct: Murine LLC; also called murine LTBP3-proTGFβ1 complex
Description: as §2, §3, §4

[8] = target: T3, hGARP-proTGFβ1; assay: SPR (Biacore), Fab; affinity relative to Ref
Description: as §2, §3, §4

[9] = target: endogenous LTBP-proTGFβ1 of human LN229 cells (human, UniProt P01137 30-390); assay: cell-based or functional assay
[10] = target: T6, hLRRC33-proTGFβ1 (human, UniProt Q86YC3 19-650; P01137 30-390, limits assumed); assay: SPR (Biacore), Fab
T6 construct: LLC as m1; Same id used for the cell-surface complex in reporter assays; also called human LRRC33-proTGFβ1 complex; LRRC33-ProTGFb1

[11] = target: T1, hLTBP3-proTGFβ1; assay: SPR (Biacore 8K), biotinylated antigen captured, Fab as analyte
Description: as §4
(§5) The binding kinetics of antibody interactions with each of the antigen complexes, human LTBP1-ProTGFb1, human LTBP3-ProTGFb1, human GARP-ProTGFb1, and human LRRC33-ProTGFb1, were evaluated by surface plasmon resonance. Binding kinetics was evaluated by surface plasmon resonance using a BIACORE® 8K (GE) instrument. Biotinylated antigens were captured on a Biotin CAP chip and the Fab fragments of the antibodies were used as analytes. Sensorgrams for Fab binding at variable concentrations (0.6-10 nM) were globally fit to obtain the kinetic parameters.
(§6) Binding kinetics for the Fabs were evaluated against each of the four human antigens, LTBP1-ProTGFb1, LTBP3-ProTGFb1, GARP-ProTGFb1, and LRRC33-ProTGFb1. […] These experiments were repeated.

[12] = target: T2, hLTBP1-proTGFβ1; assay: as above
Description: as §4, §5, §6

[13] = target: T6, hLRRC33-proTGFβ1; assay: as above
Description: as §4, §5, §6

[14] = target: T3, hGARP-proTGFβ1; assay: as above
Description: as §4, §5, §6

T1 sequence (Q9NS15 44-1303 limits assumed, chain 1 of 2): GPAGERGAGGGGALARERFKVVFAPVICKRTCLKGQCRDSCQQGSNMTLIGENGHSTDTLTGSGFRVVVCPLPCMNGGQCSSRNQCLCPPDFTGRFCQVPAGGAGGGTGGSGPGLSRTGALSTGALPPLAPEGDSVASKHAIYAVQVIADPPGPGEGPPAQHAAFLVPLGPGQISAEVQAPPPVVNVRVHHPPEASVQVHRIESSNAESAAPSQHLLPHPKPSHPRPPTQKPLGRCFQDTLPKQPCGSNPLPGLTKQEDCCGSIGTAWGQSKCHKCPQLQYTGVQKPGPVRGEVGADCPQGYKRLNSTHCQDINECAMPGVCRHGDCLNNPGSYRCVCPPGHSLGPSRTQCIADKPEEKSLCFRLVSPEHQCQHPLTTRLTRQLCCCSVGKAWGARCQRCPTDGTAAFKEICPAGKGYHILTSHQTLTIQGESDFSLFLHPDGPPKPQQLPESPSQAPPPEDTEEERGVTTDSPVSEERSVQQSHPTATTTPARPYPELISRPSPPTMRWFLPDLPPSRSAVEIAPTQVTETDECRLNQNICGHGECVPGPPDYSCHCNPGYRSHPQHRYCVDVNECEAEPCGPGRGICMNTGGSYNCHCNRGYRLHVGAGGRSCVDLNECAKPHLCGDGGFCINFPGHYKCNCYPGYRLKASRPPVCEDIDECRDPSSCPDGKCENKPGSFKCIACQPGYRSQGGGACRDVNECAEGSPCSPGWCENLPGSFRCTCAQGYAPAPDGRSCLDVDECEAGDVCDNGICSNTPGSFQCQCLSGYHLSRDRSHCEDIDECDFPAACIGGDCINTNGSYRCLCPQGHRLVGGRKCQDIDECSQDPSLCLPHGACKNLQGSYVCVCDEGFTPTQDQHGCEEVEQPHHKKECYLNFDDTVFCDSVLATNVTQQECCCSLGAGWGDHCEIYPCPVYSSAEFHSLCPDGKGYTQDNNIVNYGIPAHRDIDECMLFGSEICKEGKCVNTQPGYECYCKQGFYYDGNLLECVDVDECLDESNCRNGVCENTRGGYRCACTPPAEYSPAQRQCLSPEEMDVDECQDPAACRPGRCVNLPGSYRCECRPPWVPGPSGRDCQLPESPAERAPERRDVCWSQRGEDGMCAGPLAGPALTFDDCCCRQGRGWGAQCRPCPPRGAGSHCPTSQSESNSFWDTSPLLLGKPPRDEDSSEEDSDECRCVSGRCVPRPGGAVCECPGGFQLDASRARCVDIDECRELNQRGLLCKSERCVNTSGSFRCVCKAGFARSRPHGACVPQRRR
T1 sequence (P01137 30-390 limits assumed, chain 2 of 2): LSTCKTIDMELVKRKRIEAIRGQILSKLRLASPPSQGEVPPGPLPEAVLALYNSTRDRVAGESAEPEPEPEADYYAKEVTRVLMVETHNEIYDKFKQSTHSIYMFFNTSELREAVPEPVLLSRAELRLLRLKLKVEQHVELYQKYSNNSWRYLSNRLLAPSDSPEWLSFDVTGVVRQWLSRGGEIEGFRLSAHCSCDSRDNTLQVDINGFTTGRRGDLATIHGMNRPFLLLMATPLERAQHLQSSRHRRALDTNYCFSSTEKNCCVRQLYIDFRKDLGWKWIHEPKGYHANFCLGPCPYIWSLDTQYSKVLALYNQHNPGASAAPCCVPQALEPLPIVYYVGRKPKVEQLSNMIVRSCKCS
T6 sequence (Q86YC3 19-650 limits assumed, chain 1 of 2): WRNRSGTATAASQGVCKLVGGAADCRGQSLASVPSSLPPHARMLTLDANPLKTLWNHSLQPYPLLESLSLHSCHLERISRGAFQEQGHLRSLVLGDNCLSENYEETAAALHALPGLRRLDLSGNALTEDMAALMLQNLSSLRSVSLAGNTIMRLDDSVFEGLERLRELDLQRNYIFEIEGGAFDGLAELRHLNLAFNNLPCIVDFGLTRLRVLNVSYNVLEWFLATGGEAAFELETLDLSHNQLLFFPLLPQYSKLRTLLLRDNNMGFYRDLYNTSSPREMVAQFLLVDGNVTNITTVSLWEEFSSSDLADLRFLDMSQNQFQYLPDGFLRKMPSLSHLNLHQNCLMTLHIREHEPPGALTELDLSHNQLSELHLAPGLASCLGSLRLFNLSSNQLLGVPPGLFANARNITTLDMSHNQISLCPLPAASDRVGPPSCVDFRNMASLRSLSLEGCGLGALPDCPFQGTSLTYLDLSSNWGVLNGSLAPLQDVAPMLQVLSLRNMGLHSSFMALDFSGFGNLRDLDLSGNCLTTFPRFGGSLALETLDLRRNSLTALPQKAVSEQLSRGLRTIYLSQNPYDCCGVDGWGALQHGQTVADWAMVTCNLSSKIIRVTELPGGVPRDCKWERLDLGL
T6 sequence (P01137 30-390 limits assumed, chain 2 of 2): as the sequence (P01137 30-390 limits assumed, chain 2 of 2) above
T2 sequence (Q14766 347-1721 limits assumed, chain 1 of 2): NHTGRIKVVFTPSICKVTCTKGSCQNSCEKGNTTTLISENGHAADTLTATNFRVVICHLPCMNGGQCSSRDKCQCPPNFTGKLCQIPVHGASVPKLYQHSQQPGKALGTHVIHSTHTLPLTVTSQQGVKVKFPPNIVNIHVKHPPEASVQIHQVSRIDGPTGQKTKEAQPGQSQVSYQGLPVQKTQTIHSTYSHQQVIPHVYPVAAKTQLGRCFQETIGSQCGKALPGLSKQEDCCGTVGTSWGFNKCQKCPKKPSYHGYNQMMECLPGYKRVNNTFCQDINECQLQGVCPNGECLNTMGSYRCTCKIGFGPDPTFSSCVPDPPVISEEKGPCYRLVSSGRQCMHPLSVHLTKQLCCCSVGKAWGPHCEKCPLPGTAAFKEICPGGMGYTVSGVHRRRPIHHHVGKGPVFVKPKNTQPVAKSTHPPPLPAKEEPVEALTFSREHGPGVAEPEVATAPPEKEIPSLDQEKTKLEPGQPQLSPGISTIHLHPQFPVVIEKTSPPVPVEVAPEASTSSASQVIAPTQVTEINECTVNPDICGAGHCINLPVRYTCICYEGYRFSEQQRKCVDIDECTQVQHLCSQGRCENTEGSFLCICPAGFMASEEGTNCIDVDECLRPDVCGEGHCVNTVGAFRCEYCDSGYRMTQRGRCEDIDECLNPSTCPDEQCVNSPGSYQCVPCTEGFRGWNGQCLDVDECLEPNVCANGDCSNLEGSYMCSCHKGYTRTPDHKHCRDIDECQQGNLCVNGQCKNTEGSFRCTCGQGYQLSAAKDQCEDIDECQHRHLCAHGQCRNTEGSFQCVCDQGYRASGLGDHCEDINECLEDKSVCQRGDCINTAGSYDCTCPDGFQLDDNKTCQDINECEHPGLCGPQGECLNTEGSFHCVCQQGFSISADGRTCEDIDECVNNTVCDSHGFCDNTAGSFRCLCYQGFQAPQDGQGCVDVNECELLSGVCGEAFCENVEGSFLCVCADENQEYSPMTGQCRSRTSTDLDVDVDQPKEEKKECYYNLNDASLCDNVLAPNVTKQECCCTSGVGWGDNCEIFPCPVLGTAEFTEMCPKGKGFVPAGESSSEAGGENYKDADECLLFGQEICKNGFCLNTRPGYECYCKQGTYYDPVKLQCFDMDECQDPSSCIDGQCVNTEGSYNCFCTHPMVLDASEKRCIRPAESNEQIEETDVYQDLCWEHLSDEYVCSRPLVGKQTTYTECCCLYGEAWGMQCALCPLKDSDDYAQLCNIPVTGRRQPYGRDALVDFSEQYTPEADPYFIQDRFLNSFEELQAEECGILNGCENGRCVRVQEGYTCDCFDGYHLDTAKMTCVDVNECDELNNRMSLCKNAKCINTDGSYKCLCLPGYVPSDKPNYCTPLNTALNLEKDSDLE
T2 sequence (P01137 30-390 limits assumed, chain 2 of 2): as the sequence (P01137 30-390 limits assumed, chain 2 of 2) above
T3 sequence (Q14392 18-627 limits assumed, chain 1 of 2): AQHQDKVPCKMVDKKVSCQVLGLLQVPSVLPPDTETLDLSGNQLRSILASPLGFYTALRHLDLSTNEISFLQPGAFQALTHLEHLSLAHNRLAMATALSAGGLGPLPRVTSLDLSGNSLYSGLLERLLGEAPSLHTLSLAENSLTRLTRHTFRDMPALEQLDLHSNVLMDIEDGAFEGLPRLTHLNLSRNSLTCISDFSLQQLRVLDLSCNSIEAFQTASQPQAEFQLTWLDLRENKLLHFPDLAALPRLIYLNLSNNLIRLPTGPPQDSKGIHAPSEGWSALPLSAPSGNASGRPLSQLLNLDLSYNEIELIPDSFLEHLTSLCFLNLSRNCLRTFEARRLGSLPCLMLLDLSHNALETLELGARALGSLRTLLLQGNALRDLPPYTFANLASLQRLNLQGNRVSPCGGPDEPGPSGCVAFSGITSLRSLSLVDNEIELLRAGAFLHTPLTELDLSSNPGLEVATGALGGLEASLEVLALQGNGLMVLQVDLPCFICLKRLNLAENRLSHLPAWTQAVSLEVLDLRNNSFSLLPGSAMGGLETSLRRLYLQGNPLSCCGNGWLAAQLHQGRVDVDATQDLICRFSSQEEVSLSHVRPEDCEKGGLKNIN
T3 sequence (P01137 30-390 limits assumed, chain 2 of 2): as the sequence (P01137 30-390 limits assumed, chain 2 of 2) above
endogenous LTBP-proTGFβ1 of human LN229 cells, sequence (P01137 30-390): as the sequence (P01137 30-390 limits assumed, chain 2 of 2) above

B1: Ab46 Fab (Fab, V domains shown)
VH: EVQLLESGGGLVQPGGSLRLSCAASGFTFADYAMTWVRQAPGKGLEWVSAISGSGAATYFADSVKGRFTISRDNSKNTLYLQMNSLRAEDTAVYYCARVSSGHWDYDYWGQGTLVTVSS
VL: DIQLTQSPSSLSASVGDRVTITCRASQSISSYLNWYQQKPGKAPKLLIYAASGLESGVPSRFSGSGSGTDFTLTISSLQPEDFATYYCQQTYGVPLTFGGGTKVEIK
notes: Fab fragment
koff [1]: 0.000438 s⁻¹ | kon [1]: 619000 M⁻¹ s⁻¹ | koff [2]: 4.98e-05 s⁻¹ | kon [2]: 703000 M⁻¹ s⁻¹ | koff [3]: 0.00029 s⁻¹ | kon [3]: 703000 M⁻¹ s⁻¹ | Fold difference [4]: 72 fold | Fold difference [5]: 134 fold | Fold difference [6]: 123 fold | Fold difference [7]: 91 fold | Fold difference [8]: 53 fold | fAb IC50 [9]: 0.723 nM | Kd [10]: 0.0841 nM | koff [10]: 0.000128 s⁻¹ | kon [10]: 1.52e+06 M⁻¹ s⁻¹ | Kd [11]: 0.109 nM | koff [11]: 0.000195 s⁻¹ | kon [11]: 1.78e+06 M⁻¹ s⁻¹ | Kd [12]: 0.035 nM | koff [12]: 8.52e-05 s⁻¹ | kon [12]: 2.44e+06 M⁻¹ s⁻¹ | Kd [13]: 0.119 nM | koff [13]: 0.000162 s⁻¹ | kon [13]: 1.36e+06 M⁻¹ s⁻¹ | Kd [14]: 0.19 nM | koff [14]: 0.000359 s⁻¹ | kon [14]: 1.89e+06 M⁻¹ s⁻¹

Reference: patent US20240294623A1 (SCHOLAR ROCK, published 2024)
